# Results taken from patent US8173668B1 (Alcon Research, Ltd., priority 2007, dated 2012).
# T1: B2-receptors in h-CM cells (Homo sapiens, UniProt P30411)
# T1 construct: B2-receptor proteins in h-TM, h-CM and h-NPE cells; endogenous in cells; host or cells: human trabecular meshwork (h-TM), human ciliary muscle (h-CM) and human non-pigmented ciliary epithelial (h-NPE) cells
# T1 sequence (P30411 1-391): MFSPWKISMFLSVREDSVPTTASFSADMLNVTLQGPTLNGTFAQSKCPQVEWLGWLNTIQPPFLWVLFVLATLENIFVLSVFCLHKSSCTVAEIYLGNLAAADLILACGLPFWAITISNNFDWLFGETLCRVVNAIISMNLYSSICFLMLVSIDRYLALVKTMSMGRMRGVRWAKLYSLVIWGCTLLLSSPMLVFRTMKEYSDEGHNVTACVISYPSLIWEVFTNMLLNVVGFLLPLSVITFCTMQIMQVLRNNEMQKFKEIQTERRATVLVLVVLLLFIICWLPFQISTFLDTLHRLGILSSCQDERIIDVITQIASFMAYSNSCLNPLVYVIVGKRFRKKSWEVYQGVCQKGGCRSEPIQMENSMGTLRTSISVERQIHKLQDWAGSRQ
# T2: B2-receptors in h-TM cells (Homo sapiens, UniProt P30411)
# T2 construct: B2-receptor proteins in h-TM, h-CM and h-NPE cells; endogenous in cells; host or cells: human trabecular meshwork (h-TM), human ciliary muscle (h-CM) and human non-pigmented ciliary epithelial (h-NPE) cells
# T2 sequence (P30411 1-391): T1 sequence (P30411 1-391)
# T3: B2-receptors in h-NPE cells (Homo sapiens, UniProt P30411)
# T3 construct: B2-receptor proteins in h-TM, h-CM and h-NPE cells; endogenous in cells; host or cells: human trabecular meshwork (h-TM), human ciliary muscle (h-CM) and human non-pigmented ciliary epithelial (h-NPE) cells
# T3 sequence (P30411 1-391): T1 sequence (P30411 1-391)
# T4: human bradykinin B2-receptor (human, UniProt P30411 1-391)
# T4 sequence (looked up): T1 sequence (P30411 1-391)
# B1: TGFβ2: cytokine transforming growth factor-β2 (protein, UniProt P61812 303-414, looked up)
# Transforming growth factor …: ALDAAYCFRNVQDNCCLRPLYIDFKRDLGWKWIHEPKGYNANFCAGACPYLWSSDTQHSRVLSLYNTINPEASASPCCVSQDLEPLTILYYIGKTPKIEQLSNMIVKSCKCS
# Key:
# [1] = tested on: conscious ocular hypertensive cynomolgus monkey eyes; test: IOP response in lasered (hypertensive) eyes of conscious cynomolgus monkeys, topical ocular; assay type: in vivo; conditions: for % Change in IOP: Table 10, 300 μg topical ocular
# Method: Intraocular pressure (IOP) is determined with an Alcon Pneumatonometer (Alcon Laboratories, Inc., Fort Worth, Tex.) after light corneal anesthesia with 0.1% proparacaine. Right eyes are hypertensive as a result of laser trabeculoplasty. After a baseline IOP measurement, test compound is instilled in the right eyes only of 8-10 cynomolgus monkeys. Vehicle is instilled in the right eyes of 5-6 additional animals. Subsequent IOP measurements are taken at 1, 3, and 6 hours. IOP measurements are also taken on left eyes (normotensive and untreated) at each of these time points. The percent change in IOP from baseline is determined for each animal for every IOP measurement (Sharif et al. J. Ocular Pharmacol. Ther. 17: 305-317, 2001; May et al., J Pharmacol Exp Ther. 306: 301-309, 2003; Sharif et al. Invest. Ophthalmol. Vis. Res. 47: 4001-4010, 2006). Group mean and standard error of the mean (SEM) are calculated for each time point. […] In cases where the compound of invention has poor ocular bioavailability, the compound may need to be administered intracamerally or intravitreally in order to observe the IOP-lowering efficacy.
# The IOP-lowering effect was slow to develop but significant IOP reduction was observed even 3 hours post-dosing with maximum ocular hypotension observed 16-48 hours post-dosing (Tables 6-8; FIGS. 3b-5).
# [2] = target: human bradykinin B2-receptor (human) (UniProt P30411); test: cell-based or functional assay
# [3] = target: T1, B2-receptors in h-CM cells; test: [Ca2+]i mobilization (FLIPR) in h-CM cells, agonist mode; assay type: cell-based; conditions: read-out: Intrinsic Activity (Emax, % max relative to BK)
# Method: (§1) On the day of the experiment, one vial of FLIPR Calcium Assay Kit dye is re-suspended in 50 mL of a FLIPR buffer consisting of Hank's Balanced Salt Solution (HBSS), 20 mM HEPES, and 2.5 mM probenecid, pH 7.4. Cells are loaded with the calcium-sensitive dye by addition of an equal volume (50 μL) to each well of the 96-well plate and incubated with dye for 1 h at 23° C. After this time, the test compound plate and cell plate are placed in the FLIPR instrument. At the beginning of an experimental run, a signal test is performed to check the basal fluorescence signal from the dye-loaded cells and the uniformity of the signal across the plate. The basal fluorescence is adjusted between 8000-12000 counts by modifying the exposure time, the camera F-stop, or the laser power. Instrument settings for a typical assay are the following: laser power 0.3-0.6 W, camera F-stop F/2, and exposure time 0.4 sec.
# (§2) Fluorescence data are collected in real-time at 1.0 sec intervals for the first 60 secs and at 6.0 sec intervals for an additional 120 secs. […] The data are then analyzed using an automated, iterative, sigmoidal curve-fitting computer program to obtain the potency and intrinsic activities of the test agents as previously described (Sharif et al. J. Pharmacol. Exp. Ther. 286: 1094-1102, 1998; Sharif et al. Invest. Ophthalmol. Vis. Sci. 39:2562-2571, 1998; Kelly et al. J. Pharmacol. Exp. Ther. 304: 238-245, 2003). The sources of materials and reagents for such assays can be found in the references cited above.
# [4] = target: T2, B2-receptors in h-TM cells; test: [Ca2+]i mobilization (FLIPR) in h-TM cells, agonist mode; assay type: cell-based; conditions: HTM, read-out: Intrinsic Activity (Emax, % max relative to BK)
# Method: as §1, §2
# [5] = target: T3, B2-receptors in h-NPE cells; test: [Ca2+]i mobilization (FLIPR) in h-NPE cells, agonist mode; assay type: cell-based; conditions: read-out: Intrinsic Activity (Emax, % max relative to BK)
# Method: as §1, §2
# [6] = target: T4, human bradykinin B2-receptor; test: cell-based or functional assay
# B1-receptor mRNA = test: Microarray analysis of B1-receptor mRNA in TGFβ2-treated human TM cells; assay type: cell-based; conditions: Glaucomatous h-TM Cells, mean ± SEM
# B2-receptor mRNA = test: Microarray analysis of B2-receptor mRNA in TGFβ2-treated human TM cells; assay type: cell-based; conditions: mean ± SEM
molecule,measurement,setting,value
"CCCC[P+](CCCC)(CCCC)Cc1ccc(NC(=O)[C@H](Cc2ccc3ccccc3c2)NC(=NC2CCCCC2)NC2CCCCC2)cc1.[Cl-] [WIN-64338, reference compound]",modulation of IOP,[1]; 300 μg topically administered,failed to modulate IOP
same,% Change in IOP,[1]; Dose 1/1 hr,1.7 ± 1.6%
same,% Change in IOP,[1]; Dose 1/3 hr,−10.4 ± 2.8%
same,% Change in IOP,[1]; Dose 1/6 hr,1.3 ± 1.3%
Des-Arg^9-BK (Arg-Pro-Pro-Gly-Phe-Ser-Pro-Phe) (peptide),"[Ca2+]i mobilization in h-CM cells: Intrinsic Activity (Emax, % max relative to BK)",[2],94%
same,[Ca2+]i mobilization in h-CM cells: Potency (EC50; nM),[2],4260 nM
same,"[Ca2+]i mobilization in h-NPE cells: Intrinsic Activity (Emax, % max relative to BK)",[2],70%
same,[Ca2+]i mobilization in h-NPE cells: Potency (EC50; nM),[2],16000 nM
same,"[Ca2+]i mobilization in h-TM cells: Intrinsic Activity (Emax, % max relative to BK)",[2],112%
same,[Ca2+]i mobilization in h-TM cells: Potency (EC50; nM),[2],2570 nM
H-RPPGFSPFR-OH [BK],Emax,[3],104%
same,Emax,[4],110%
same,Emax,[5],98%
Hyp^3-BK (Arg-Pro-Hyp-Gly-Phe-Ser-Pro-Phe-Arg) (peptide),"[Ca2+]i mobilization in h-CM cells: Intrinsic Activity (Emax, % max relative to BK)",[2],105%
same,"[Ca2+]i mobilization in h-NPE cells: Intrinsic Activity (Emax, % max relative to BK)",[2],93%
same,[Ca2+]i mobilization in h-NPE cells: Potency (EC50; nM),[2],6 nM
same,"[Ca2+]i mobilization in h-TM cells: Intrinsic Activity (Emax, % max relative to BK)",[2],110%
same,[Ca2+]i mobilization in h-TM cells: Potency (EC50; nM),[2],0.9 nM
MKRPPGFSPFR [Met-Lys-BK (Met-Lys-Arg-Pro-Pro-Gly-Phe-Ser-Pro-Phe-Arg)],"[Ca2+]i mobilization in h-CM cells: Intrinsic Activity (Emax, % max relative to BK)",[6],110%
same,[Ca2+]i mobilization in h-CM cells: Potency (EC50; nM),[6],16.1 nM
same,"[Ca2+]i mobilization in h-NPE cells: Intrinsic Activity (Emax, % max relative to BK)",[6],77%
same,[Ca2+]i mobilization in h-NPE cells: Potency (EC50; nM),[6],125 nM
same,"[Ca2+]i mobilization in h-TM cells: Intrinsic Activity (Emax, % max relative to BK)",[6],111%
same,[Ca2+]i mobilization in h-TM cells: Potency (EC50; nM),[6],6.5 nM
B1,Normalized Levels of B1-receptor mRNA (GC-RMA),B1-receptor mRNA; after 1.5 hr,1.54 ± 0.09
same,Normalized Levels of B1-receptor mRNA (GC-RMA),B1-receptor mRNA; after 16 hr,0.53 ± 0.05
same,Normalized Levels of B2-receptor mRNA (GC-RMA),"B2-receptor mRNA; Glaucomatous h-TM Cells, after 1.5 hr",0.97 ± 0.06
same,Normalized Levels of B2-receptor mRNA (GC-RMA),"B2-receptor mRNA; Glaucomatous h-TM Cells, after 16 hr",0.24 ± 0.06
same,Normalized Levels of B2-receptor mRNA (GC-RMA),"B2-receptor mRNA; Normal h-TM Cells, after 1.5 hr",0.68 ± 0.05
same,Normalized Levels of B2-receptor mRNA (GC-RMA),"B2-receptor mRNA; Normal h-TM Cells, after 16 hr",0.14 ± 0.11
KRPPGFSPFR [Lys-BK (Lys-Arg-Pro-Pro-Gly-Phe-Ser-Pro-Phe-Arg)],"[Ca2+]i mobilization in h-CM cells: Intrinsic Activity (Emax, % max relative to BK)",[6],115%
same,[Ca2+]i mobilization in h-CM cells: Potency (EC50; nM),[6],3.2 nM
same,"[Ca2+]i mobilization in h-NPE cells: Intrinsic Activity (Emax, % max relative to BK)",[6],90%
same,[Ca2+]i mobilization in h-NPE cells: Potency (EC50; nM),[6],19.6 nM
same,"[Ca2+]i mobilization in h-TM cells: Intrinsic Activity (Emax, % max relative to BK)",[6],115%
same,[Ca2+]i mobilization in h-TM cells: Potency (EC50; nM),[6],1.9 nM
